This series has as its target GAVP(N56K+C71V) N56K,C71V (VIVID numbering) (artificial) (UniProt Q04206). In words: cell_activity.
Sequence of UniProt Q04206 (Q04206 whole entry, stated change not applied): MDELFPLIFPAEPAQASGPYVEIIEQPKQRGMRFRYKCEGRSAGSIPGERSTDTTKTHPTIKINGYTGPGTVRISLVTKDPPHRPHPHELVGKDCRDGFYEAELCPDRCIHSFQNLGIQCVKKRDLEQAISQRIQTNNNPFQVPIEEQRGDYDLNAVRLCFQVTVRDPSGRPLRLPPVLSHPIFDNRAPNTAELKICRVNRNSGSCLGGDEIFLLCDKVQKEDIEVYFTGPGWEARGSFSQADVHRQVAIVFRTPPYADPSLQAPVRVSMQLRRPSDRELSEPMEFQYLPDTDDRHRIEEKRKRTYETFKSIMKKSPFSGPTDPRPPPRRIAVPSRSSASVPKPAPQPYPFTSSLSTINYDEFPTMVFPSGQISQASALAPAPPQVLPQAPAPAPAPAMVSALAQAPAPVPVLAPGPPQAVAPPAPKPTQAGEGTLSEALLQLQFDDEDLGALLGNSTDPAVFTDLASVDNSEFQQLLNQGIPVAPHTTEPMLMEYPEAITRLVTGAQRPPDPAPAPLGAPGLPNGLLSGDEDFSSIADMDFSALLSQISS

“TCTAGACGGAGTACTGTCCTCCGAGCGGAGTACTGTCCTCCGACTCGAGCGGAGTACTGTCCTCCGATCGGAGTACTGTCCTCCGCGAATTCCGGAGTACTGTCCTCCGAAGACGCTAGCGGGGGGCTATAAAAGGGGGTGGGGGCGTTCGTCCTCACTCTAGATCTGCGATCTAAGTAAGCTTGGCCACCATGGGAGTCAAAGTTCTGTTTGCCCTGATCTGCATCGCTGTGGCCGAGGCCAAGCCCACCGAGAACAACGAAGACTTCAACATCGTGGCCGTGGCCAGCAACTTCGCGACCACGGATCTCGATGCTGACCGCGGGAAGTTGCCCGGCAAGAAGCTGCCGCTGGAGGTGCTCAAAGAGATGGAAGCCAATGCCCGGAAAGCTGGCTGCACCAGGGGCTGTCTGATCTGCCTGTCCCACATCAAGTGCACGCCCAAGATGAAGAAGTTCATCCCAGGACGCTGCCACACCTACGAAGGCGACAAAGAGTCCGCACAGGGCGGCATAGGCGAGGCGATCGTCGACATTCCTGAGATTCCTGGGTTCAAGGACTTGGAGCCCATGGAGCAGTTCATCGCACAGGTCGATCTGTGTGTGGACTGCACAACTGGCTGCCTCAAAGGGCTTGCCAACGTGCAGTGTTCTGACCTGCTCAAGAAGTGGCTGCCGCAACGCTGTGCGACCTTTGCCAGCAAGATCCAGGGCCAGGTGGACAAGATCAAGGGGGCCGGTGGTGACTAA (double strand) [5xUASG-TATA-Gluc]”: the activity (HEK293, Gluc after 12 h light, 30-fold after 3 h) was determined as 100 fold.
Substance 5xUASG-TATA-Fluc displayed an activity (HEK293 light/dark induction, also active in NIH3T3 and COS-7) of 200 fold.

The record behind these values is patent publication US20130345294.
